The target of experiment [1] is murine IFNAR-1 on murine cells (L-929, NFS-01) (murine) (UniProt P33896). In words: cell-based or functional assay.
Experiment [2] has as its target human IFNAR-1 on human cells (HeLa, WISH, A549) (human) (UniProt P17181). In words: cell-based or functional assay.
In another experiment the target is T1, human IFNAR1-ECD (human, UniProt P17181 28-436).
T1 construct: extracellular domain; Purified ECD captured on the chip by antibody DB2 and cross-linked with AA3; also called purified human IFNAR-1
T1 sequence (looked up): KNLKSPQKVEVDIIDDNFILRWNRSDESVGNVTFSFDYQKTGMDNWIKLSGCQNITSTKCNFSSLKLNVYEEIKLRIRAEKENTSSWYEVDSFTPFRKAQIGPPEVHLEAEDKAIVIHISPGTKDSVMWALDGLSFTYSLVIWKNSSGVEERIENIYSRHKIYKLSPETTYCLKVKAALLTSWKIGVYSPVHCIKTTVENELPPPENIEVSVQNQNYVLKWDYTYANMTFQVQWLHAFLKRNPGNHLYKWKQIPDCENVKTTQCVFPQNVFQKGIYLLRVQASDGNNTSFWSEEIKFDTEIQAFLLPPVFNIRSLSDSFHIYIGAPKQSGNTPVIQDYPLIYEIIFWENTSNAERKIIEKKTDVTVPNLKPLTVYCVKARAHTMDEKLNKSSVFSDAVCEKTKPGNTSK
In words: SPR, IFNAR-1-ECD captured by antibody. (Surface plasmon resonance follows binding to a sensor surface in real time, without labels.)

Chain of murine IFNAR-1 on murine cells (L-929, NFS-01) (murine) (P33896 27-590): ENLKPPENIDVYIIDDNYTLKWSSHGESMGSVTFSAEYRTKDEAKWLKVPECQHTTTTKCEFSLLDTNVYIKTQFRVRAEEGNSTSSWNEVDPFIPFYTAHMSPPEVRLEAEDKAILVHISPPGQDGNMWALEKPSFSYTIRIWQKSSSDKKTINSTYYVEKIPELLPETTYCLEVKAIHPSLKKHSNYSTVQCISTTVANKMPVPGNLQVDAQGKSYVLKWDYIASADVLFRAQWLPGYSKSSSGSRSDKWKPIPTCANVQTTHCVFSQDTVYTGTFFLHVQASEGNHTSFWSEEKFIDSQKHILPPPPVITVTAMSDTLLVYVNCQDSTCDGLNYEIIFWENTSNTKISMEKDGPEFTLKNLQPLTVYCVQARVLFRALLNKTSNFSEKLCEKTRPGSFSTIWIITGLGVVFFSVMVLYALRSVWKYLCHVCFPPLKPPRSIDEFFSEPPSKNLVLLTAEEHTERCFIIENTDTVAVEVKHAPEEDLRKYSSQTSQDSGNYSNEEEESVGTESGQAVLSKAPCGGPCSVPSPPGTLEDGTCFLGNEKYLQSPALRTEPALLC
Experimental for human IFNAR1-ECD: Binding to purified human IFNAR-1 and IFNAR-2 is measured with the Protein Interaction Array system (Bio-Rad) according to published methods. A solution of 0.005% Tween20 in PBS pH 7.4 was used as running buffer at a flow rate of 30 μl/min. […] Thereafter, five of the six channels were reacted with IFNAR1-ECD or IFNAR2-ECD (180 μl at a concentration of 0.5 μM), leaving one channel free as reference. This was followed by cross-linking a second antibody. […] Data were analyzed with the BIAeval 4.1 software, using, the standard Langmuir models for fitting kinetic data. Dissociation constants KD were determined from the rate constants according to:

Regarding “IFN-α2/α1[K120E] (from UniProt A0A087WWS6 25-190) (ligand)”, in experiment [1], the Antiproliferative Activity (% of native), Murine (NFS-01) is less than 0.0005% and the Antiviral Activity (% of Native), Murine (L-929) was less than 0.04%. For the same molecule, in experiment [2], the Antiproliferative Activity (% of native), Human (WISH) is less than 0.02%; the Antiviral Activity (% of Native), Human (HeLa) was less than 0.04%; the Antiviral Activity (% of Native), Human (Wish) was less than 0.02%.
In experiment [2], “IFN-α2 NLYY-117A (N65A/L80A/Y85A/Y89A/L117A) (from UniProt P01563 24-188) (ligand)” returned an Antiviral Activity (% of Native EC50), Human (Wish) of 0.03%.
Molecule “IFN-α2/α1[K120E/K121E/R124E] (from UniProt A0A087WWS6 25-190) (ligand)” had an Antiviral Activity (% of Native), Murine (L-929) in experiment [1] of less than 0.01%. In experiment [2], this molecule had an Antiproliferative Activity (% of native), Human (WISH) of less than 0.2%; an Antiviral Activity (% of Native), Human (HeLa) of less than 0.04%; an Antiviral Activity (% of Native), Human (Wish) of less than 0.1%.
Regarding “IFN-α2/α1[K120E/K121E] (from UniProt A0A087WWS6 25-190) (ligand)”, in experiment [1], the Antiproliferative Activity (% of native), Murine (NFS-01) was less than 0.0001% and the Antiviral Activity (% of Native), Murine (L-929) is less than 0.04%. In experiment [2], this molecule displayed an Antiproliferative Activity (% of native), Human (WISH) of less than 0.05%; an Antiviral Activity (% of Native), Human (HeLa) of less than 0.08%; an Antiviral Activity (% of Native), Human (Wish) of 0.006%.
Turning to “IFN-α2b[R120A] (from UniProt P01563 24-188) (ligand)”, in experiment [2], the Antiproliferative Activity, Human (Wish; %) turned out to be 0.05% and the Antiviral Activity (% of Native EC50), Human (HeLa) was 2.3%.
As for “IFN-α2/α1[K121E] (from UniProt A0A087WWS6 25-190) (ligand)”, in experiment [1], the Antiviral Activity (% of Native), Murine (L-929) is 0.5%. Further, in experiment [2], the Antiviral Activity (% of Native), Human (HeLa) is 8%.
As for “IFN-α2/α1[N65A/L80A/C85A/Y89A] (from UniProt A0A087WWS6 25-190) (ligand)”, the Antiviral Activity (% of Native), Murine (L-929) in experiment [1] was 55%. This molecule gave an Antiviral activity (relative %), IFN-α2/α1, Human HeLa (partial results) in experiment [2] of 63%.
Consider “IFN-α2/α1[Y89A] (from UniProt A0A087WWS6 25-190) (ligand)”, for which the Antiviral Activity (% of Native), Murine (L-929) in experiment [1] was 38%. In addition, in experiment [2], the Antiviral Activity (% of Native), Human (HeLa) stood at 69% and the Antiviral Activity (% of Native), Human (Wish) came to 96%.
With “IFN-α2/α1[L80A] (from UniProt A0A087WWS6 25-190) (ligand)”, the Antiviral Activity (% of Native), Murine (L-929) in experiment [1] was determined as 31%. Also, the Antiviral Activity (% of native), Human; *Assay on human A549 cells in experiment [2] turned out to be 19%.
On to “IFN-α2/α1[R124E] (from UniProt A0A087WWS6 25-190) (ligand)”, for which the Antiviral Activity (% of Native), Murine (L-929) in experiment [1] was 100%. The Antiviral Activity (% of Native), Human (HeLa) in experiment [2] amounted to 20%.
On to “IFN-α2/α1[K120A] (from UniProt A0A087WWS6 25-190) (ligand)”, for which, in experiment [1], the Antiproliferative Activity (% of native), Murine (NFS-01) came to 0.03% and the Antiviral Activity (% of Native), Murine (L-929) was found to be 2%. Besides, in experiment [2], the Antiproliferative Activity (% of native), Human (WISH) was determined as 0.7%; the Antiviral Activity (% of Native), Human (HeLa) was found to be 2%; the Antiviral Activity (% of Native), Human (Wish) turned out to be 9.7%.
As to “IFN-α2/α1[K120A/K121A] (from UniProt A0A087WWS6 25-190) (ligand)”, in experiment [1], the Antiproliferative Activity (% of native), Murine (NFS-01) turned out to be 8% and the Antiviral Activity (% of Native), Murine (L-929) worked out at 33%. In experiment [2], this molecule returned an Antiproliferative Activity (% of native), Human (WISH) of 0.5%; an Antiviral Activity (% of Native), Human (HeLa) of 8.3%; an Antiviral Activity (% of Native), Human (Wish) of 13.8%.
In experiment [2], “IFN-α2/α1 5-site alanine substitution mutant (F64/N65/L80/C85/Y89) (from UniProt A0A087WWS6 25-190) (ligand)” returned an Antiviral Activity (% of Native), Human (HeLa) of 4.2% and an Antiviral Activity (% of Native), Human (Wish) of 11%.
Consider “IFN-α2/α1[C85A/Y89A] (from UniProt A0A087WWS6 25-190) (ligand)”, for which, in experiment [2], the Antiviral Activity (% of Native), Human (HeLa) is 143% and the Antiviral Activity (% of Native), Human (Wish) came out at 183%.
Turning to “IFN-α2/α1[C85A] (from UniProt A0A087WWS6 25-190) (ligand)”, the Antiviral Activity (% of Native), Murine (L-929) in experiment [1] stood at 144%. Further, the Antiviral Activity (% of Native), Human (HeLa) in experiment [2] turned out to be 141%.
As for “IFN-α2 NLYY-120A (N65A/L80A/Y85A/Y89A/R120A) (from UniProt P01563 24-188) (ligand)”, in experiment [2], the Antiproliferative Activity (% of Native EC50), Human (Wish) is less than 0.001%; the Antiviral Activity (% of Native EC50), Human (HeLa) is less than 0.002%; the Antiviral Activity (% of Native EC50), Human (Wish) is less than 0.001%.
“IFN-α2/α1[L80A/C85A/Y89A] (from UniProt A0A087WWS6 25-190) (ligand)”: the Antiviral Activity (% of Native), Murine (L-929) in experiment [1] stood at 100%. Also, in experiment [2], the Antiviral Activity (% of Native), Human (HeLa) turned out to be 54% and the Antiviral Activity (% of Native), Human (Wish) is 204%.
For “IFN-α2b-[Arg120Glu/Lys121Glu] (from UniProt P01563 24-188) (ligand)”, in experiment [2], the Antiproliferative Activity (% of Native EC50), Human (Wish) was less than 0.02%; the Antiviral Activity (% of Native EC50), Human (HeLa) is less than 1.3%; the Antiviral Activity (% of Native EC50), Human (Wish) is less than 0.002%.

B1: human-derived chimeric IFN-α2/α1 (native) (ligand)
chain: CDLPQTHSLGSRRTLMLLAQMRKISLFSCLKDRHDFGFPQEEFGNQFQKAETIPVLHEMIQQIFNLFTTKDSSAAWDEDLLDKFCTELYQQLNDLEACVMQEERVGETPLMNADSILAVKKYFRRITLYLTEKKYSPCAWEVVRAEIMRSLSLSTNLQERLRRKE
notes: the text itself names F64; E. coli; also called IFN-αA/D; Hu-alpha2/1
In the case of B1, in the experiment with human IFNAR1-ECD, the “fold stronger affinity than IFN-α2” value was roughly 5 fold and the “ratio of KD to that of IFN-α2” value is roughly 0.2.

These data come from patent US20110224407A1 (published 2011).
